Target: MBP-OsMYC2 (rice, UniProt Q336P5 1-699)
Assay: SPR

Chain of MBP-OsMYC2 (Q336P5 whole entry): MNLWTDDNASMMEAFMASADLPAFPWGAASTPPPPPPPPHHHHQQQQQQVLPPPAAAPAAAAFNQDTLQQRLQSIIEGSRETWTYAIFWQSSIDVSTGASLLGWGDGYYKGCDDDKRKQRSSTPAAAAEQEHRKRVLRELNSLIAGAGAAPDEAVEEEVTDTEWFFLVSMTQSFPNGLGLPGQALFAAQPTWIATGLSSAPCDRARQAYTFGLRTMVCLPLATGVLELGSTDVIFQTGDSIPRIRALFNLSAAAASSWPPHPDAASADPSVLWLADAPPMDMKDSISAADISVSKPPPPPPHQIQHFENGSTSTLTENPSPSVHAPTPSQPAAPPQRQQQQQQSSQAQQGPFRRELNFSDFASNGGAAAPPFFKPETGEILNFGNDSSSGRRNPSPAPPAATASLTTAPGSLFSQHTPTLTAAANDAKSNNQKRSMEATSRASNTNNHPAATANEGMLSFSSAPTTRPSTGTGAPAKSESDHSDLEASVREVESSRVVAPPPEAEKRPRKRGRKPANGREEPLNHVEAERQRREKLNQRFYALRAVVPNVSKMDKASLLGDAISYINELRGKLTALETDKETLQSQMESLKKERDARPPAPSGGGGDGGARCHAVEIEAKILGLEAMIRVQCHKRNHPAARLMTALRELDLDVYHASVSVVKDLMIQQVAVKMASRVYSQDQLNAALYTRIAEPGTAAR

B1: GST-OsGSK2 (enzyme)
chain: MDQPAPAPEPMLLDAQPPAAVACDKKQQEGEAPYAEGNDAVTGHIISTTIGGKNGEPKRTISYMAERVVGTGSFGIVFQAKCLETGETVAIKKVLQDRRYKNRELQLMRAMDHPNVISLKHCFFSTTSRDELFLNLVMEYVPETLYRVLKHYSNANHRMPLIYVKLYMYQLFRGLAYIHTVPGVCHRDVKPQNVLVDPLTHQVKLCDFGSAKTLVPGEPNISYICSRYYRAPELIFGATEYTTSIDIWSAGCVLAELLLGQPLFPGESAVDQLVEIIKVLGTPTREEIRCMNPNYTEFRFPQIKAHPWHKVFHKRMPPEAIDLASRLLQYSPSLRCTALDACAHPFFDELREPNARLPNGRPFPPLFNFKHELANSSQELISRLIPEHVRRQATHNFFNTGS
  Kd: 40.4 nM
